Numbering of substitutions follows the chain as printed. Names may count otherwise.
T1: recombinant human IL2RB-huFc (human) (UniProt P14784)
T1 sequence (chain, minimally biotinylated): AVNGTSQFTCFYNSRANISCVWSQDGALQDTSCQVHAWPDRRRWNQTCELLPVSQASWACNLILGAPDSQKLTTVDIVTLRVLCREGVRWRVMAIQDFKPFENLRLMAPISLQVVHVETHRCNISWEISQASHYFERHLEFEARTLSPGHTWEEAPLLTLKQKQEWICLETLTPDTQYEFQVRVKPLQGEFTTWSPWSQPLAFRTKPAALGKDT

T2: Recombinant CD25 protein (IL-2R alpha chain) (human, UniProt P01589 22-240)
T2 construct: IL-2 receptor alpha chain (CD25, IL2RA), recombinant, R&D Systems cat #223-2A/CF; source: bought: R&D Systems (cat #223-2A/CF)
T2 sequence (looked up): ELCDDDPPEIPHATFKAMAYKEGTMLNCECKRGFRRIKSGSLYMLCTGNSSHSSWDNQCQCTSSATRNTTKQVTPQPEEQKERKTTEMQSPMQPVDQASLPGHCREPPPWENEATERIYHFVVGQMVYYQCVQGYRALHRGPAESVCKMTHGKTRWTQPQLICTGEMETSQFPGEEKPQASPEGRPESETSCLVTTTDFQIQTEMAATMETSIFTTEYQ

B1: IL-2 mutein D20A H16R E61Q (Fc fusion) (Fc fusion, human, UniProt P60568 21-153, looked up)
chain: APTSSSTKKTQLQLERLLLALQMILNGINNYKNPKLTRMLTFKFYMPKKATELKHLQCLEQELKPLEEVLNLAQSKNFHLRPRDLISNINVIVLELKGSETTFMCEYADETATIVEFLNRWITFCQSIISTLT
notes: human interleukin-2 (IL-2), fused to the Fc of human IgG1 (N297G); H16 is H36 in P60568); Homodimeric Fc fusion, bivalent for IL-2; source: CHO K1, stably integrated, purified from culture media (MabSelect SuRe, desalting, Superdex 200 SEC)
B2: IL-2 mutein V91K D20A M104V (Fc fusion) (Fc fusion, human, UniProt P60568 21-153, looked up)
chain: B1 chain with R16H, Q61E, V91K, M104V
notes: as for B1

Each molecule was assayed against T1, recombinant human IL2RB-huFc (human) (assay: not given). Conditions: not given.

Row | pSTAT5 MFI EC50 in CD25hi Foxp3+ Treg cells, human whole blood assay (AVG EC50, n = 3 donors) | Molecule
1 | 1.21 nM | IL-2 mutein D20A (Fc fusion) (from UniProt P60568 21-153)
2 | 20.7 nM | IL-2 mutein D20A H16R E61Q (Fc fusion) (from UniProt P60568 21-153)
3 | 1.67 nM | IL-2 mutein D20A M104T (Fc fusion) (from UniProt P60568 21-153)
4 | 6.24 nM | IL-2 mutein D20G (Fc fusion) (from UniProt P60568 21-153)
5 | 20.9 nM | IL-2 mutein D20W (Fc fusion) (from UniProt P60568 21-153)
6 | 67 pM | IL-2 mutein H16E (Fc fusion) (from UniProt P60568 21-153)
7 | 2.34 nM | IL-2 mutein H16E E61Q (Fc fusion) (from UniProt P60568 21-153)
8 | 62 pM | IL-2 mutein H16E M104L (Fc fusion) (from UniProt P60568 21-153)
9 | 0.418 nM | IL-2 mutein N88D (Fc fusion) (from UniProt P60568 21-153)
10 | 23.3 nM | IL-2 mutein N88K (Fc fusion) (from UniProt P60568 21-153)
11 | 4.76 nM | IL-2 mutein V91K D20A M104V (Fc fusion) (from UniProt P60568 21-153)
12 | 89 pM | IL-2 mutein V91S (Fc fusion) (from UniProt P60568 21-153)

What follows are molecules tested against T2, Recombinant CD25 protein (IL-2R alpha …) (assay: SPR; CD25 amine-coupled (EDC/NHS) to a CM5 chip, about 90 RU, Biacore T100; IL-2 Fc fusions as analytes, 3-fold series from 500 to 6.2 nM in PBS + 0.05% Tween-20, 75 uL/min; steady state RU levels fitted globally to a 4-parameter logistic function to derive EC50). Conditions: both partners purified.

Row | EC50 | Molecule
13 | 157 nM | B1
14 | 6 nM | B2

Reference: PMC7291599, “Defining the Threshold IL-2 Signal Required for Induction of Selective Treg Cell Responses Using Engineered IL-2 Muteins” (Frontiers in Immunology, 2020)
